Target: pseudo wild-type full-length CREB (unlabelled) (UniProt P16220)
Test: SEC-MALS

stoichiometry N: 2
Substance: pseudo wild-type full-length CREB (unlabelled) (from UniProt P16220-2 1-327) (natural protein)
